Experimental data: patent publication US20160068865

Key:
[1] = system: ZFN 17747 (IgM) (synthetic); test: cell_activity; settings: pair 17747/17749, CMV promoter, C6 chromosomes cleaved (about 1% with CAG); 5 of 43 rats modified
[2] = system: ZFN 17749 (IgM) (synthetic); test: cell_activity; settings: pair 17747/17749, CMV promoter, C6 chromosomes cleaved (about 1% with CAG); 5 of 43 rats modified

Row | Sequence | activity [1] [%] | activity [2] [%]
1 | AATTTGGTGGCCATGGGC (double strand) [IgM target of 17747] | 3 | 
2 | AGACAGGGGGCTCTC (double strand) [IgM target of 17749] |  | 3
